Here are results for 45 variants from the supplement of paper PMC10219994.

To fix the notation:
B1: library; a variant is named by its letters at N, in order (parent)
chain: GAGACCGCAACTGAAAAGTTGTGGNNNNNATAGTGAGTCGCTGCCTGCAAAGACACAACT

± gives the standard deviation of the averaged measurements.

Variants of B1 are the subject of the data set. Nature of the data set: ligation selection enrichment (abundance after / before one-round selection) (fold); higher = more template-directed ligation activity. The note with it: with T7Psub CACGGAUGCUAAUACGACUCACUAUA; MgCl2 25 mM; 42 °C; 4 h; pH 8.5. The procedure, abridged: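 In each of two independent experiments, 6 μM RNA substrate was reacted for 4 h at 42 °C with 0.75 μM of a T7-transcribed RNA ligase library randomized at five core positions, in buffer containing 50 mM EPPS pH 8.5 and 25 mM MgCl2. Only reads scoring ≥30 in quality at all randomized positions were counted after MiSeq sequencing. Each enrichment value is the ratio of abundance after ligation to abundance before ligation.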
Turning to GAGACCGCAACTGAAAAGTTGTGGGTAGTATAGTGAGTCGCTGCCTGCAAAGACACAACT [GTAGT], the ligation selection enrichment was 0.166 ± 0.037.
Under GAGACCGCAACTGAAAAGTTGTGGGTACAATAGTGAGTCGCTGCCTGCAAAGACACAACT [GTACA] stands 0.288 ± 0.094; under GAGACCGCAACTGAAAAGTTGTGGGTACTATAGTGAGTCGCTGCCTGCAAAGACACAACT [GTACT], 0.785 ± 0.17; under GAGACCGCAACTGAAAAGTTGTGGGTACGATAGTGAGTCGCTGCCTGCAAAGACACAACT [GTACG], 1.47 ± 0.055.
Under GAGACCGCAACTGAAAAGTTGTGGGTACCATAGTGAGTCGCTGCCTGCAAAGACACAACT [GTACC] stands 0.165 ± 0.011; under GAGACCGCAACTGAAAAGTTGTGGCTCAAATAGTGAGTCGCTGCCTGCAAAGACACAACT [CTCAA], 0.116 ± 0.038.
Under GAGACCGCAACTGAAAAGTTGTGGCTCAGATAGTGAGTCGCTGCCTGCAAAGACACAACT [CTCAG] stands 0.169 ± 0.011.
On to GAGACCGCAACTGAAAAGTTGTGGCTCACATAGTGAGTCGCTGCCTGCAAAGACACAACT [CTCAC], for which the ligation selection enrichment was 0.0889 ± 0.01.
For the variant GAGACCGCAACTGAAAAGTTGTGGCTCATATAGTGAGTCGCTGCCTGCAAAGACACAACT [CTCAT], the ligation selection enrichment amounted to 0.104 ± 0.013.
GAGACCGCAACTGAAAAGTTGTGGTTCACATAGTGAGTCGCTGCCTGCAAAGACACAACT [TTCAC]: the ligation selection enrichment came to 0.38 ± 0.036.
As for GAGACCGCAACTGAAAAGTTGTGGTTCATATAGTGAGTCGCTGCCTGCAAAGACACAACT [TTCAT], the ligation selection enrichment was found to be 3.73 ± 1.1.
On to GAGACCGCAACTGAAAAGTTGTGGTTCAAATAGTGAGTCGCTGCCTGCAAAGACACAACT [TTCAA], for which the ligation selection enrichment came to 0.427 ± 0.13.
Under GAGACCGCAACTGAAAAGTTGTGGTTCAGATAGTGAGTCGCTGCCTGCAAAGACACAACT [TTCAG] stands 0.375 ± 0.049.
Under GAGACCGCAACTGAAAAGTTGTGGGTCCGATAGTGAGTCGCTGCCTGCAAAGACACAACT [GTCCG] stands 0.529 ± 0.022.
Take GAGACCGCAACTGAAAAGTTGTGGGTCCCATAGTGAGTCGCTGCCTGCAAAGACACAACT [GTCCC]: the ligation selection enrichment was 0.151 ± 0.0044.
With GAGACCGCAACTGAAAAGTTGTGGGTCCAATAGTGAGTCGCTGCCTGCAAAGACACAACT [GTCCA], the ligation selection enrichment is 0.148 ± 0.0086.
Under GAGACCGCAACTGAAAAGTTGTGGCTACGATAGTGAGTCGCTGCCTGCAAAGACACAACT [CTACG] stands 0.429 ± 0.14; under GAGACCGCAACTGAAAAGTTGTGGCTACAATAGTGAGTCGCTGCCTGCAAAGACACAACT [CTACA], 0.114 ± 0.0039.
Take GAGACCGCAACTGAAAAGTTGTGGCTACCATAGTGAGTCGCTGCCTGCAAAGACACAACT [CTACC]: the ligation selection enrichment was 0.116 ± 0.021.
For GAGACCGCAACTGAAAAGTTGTGGCTACTATAGTGAGTCGCTGCCTGCAAAGACACAACT [CTACT], the ligation selection enrichment amounted to 0.785 ± 0.19.
For GAGACCGCAACTGAAAAGTTGTGGATCCCATAGTGAGTCGCTGCCTGCAAAGACACAACT [ATCCC], the ligation selection enrichment was 0.168 ± 0.049.
Under GAGACCGCAACTGAAAAGTTGTGGATCCGATAGTGAGTCGCTGCCTGCAAAGACACAACT [ATCCG] stands 0.765 ± 0.036.
To GAGACCGCAACTGAAAAGTTGTGGATCCAATAGTGAGTCGCTGCCTGCAAAGACACAACT [ATCCA] belongs 0.148 ± 0.027.
To GAGACCGCAACTGAAAAGTTGTGGGTATCATAGTGAGTCGCTGCCTGCAAAGACACAACT [GTATC] belongs 0.167 ± 0.036; to GAGACCGCAACTGAAAAGTTGTGGGTATGATAGTGAGTCGCTGCCTGCAAAGACACAACT [GTATG], 1.4 ± 0.24.
As for GAGACCGCAACTGAAAAGTTGTGGGTATAATAGTGAGTCGCTGCCTGCAAAGACACAACT [GTATA], the ligation selection enrichment stood at 0.2557 ± 0.00086.
To GAGACCGCAACTGAAAAGTTGTGGGTATTATAGTGAGTCGCTGCCTGCAAAGACACAACT [GTATT] belongs 0.236 ± 0.12; to GAGACCGCAACTGAAAAGTTGTGGCTAATATAGTGAGTCGCTGCCTGCAAAGACACAACT [CTAAT], 1.29 ± 0.25; to GAGACCGCAACTGAAAAGTTGTGGCTAAAATAGTGAGTCGCTGCCTGCAAAGACACAACT [CTAAA], 0.114 ± 0.017.
Under GAGACCGCAACTGAAAAGTTGTGGCTAAGATAGTGAGTCGCTGCCTGCAAAGACACAACT [CTAAG] stands 0.314 ± 0.043.
To GAGACCGCAACTGAAAAGTTGTGGCTAACATAGTGAGTCGCTGCCTGCAAAGACACAACT [CTAAC] belongs 0.146 ± 0.054; to GAGACCGCAACTGAAAAGTTGTGGATCAAATAGTGAGTCGCTGCCTGCAAAGACACAACT [ATCAA], 0.518 ± 0.024.
In the case of GAGACCGCAACTGAAAAGTTGTGGATCACATAGTGAGTCGCTGCCTGCAAAGACACAACT [ATCAC], the ligation selection enrichment was found to be 0.175 ± 0.028.
Take GAGACCGCAACTGAAAAGTTGTGGATCATATAGTGAGTCGCTGCCTGCAAAGACACAACT [ATCAT]: the ligation selection enrichment was 0.391 ± 0.082.
For GAGACCGCAACTGAAAAGTTGTGGATCAGATAGTGAGTCGCTGCCTGCAAAGACACAACT [ATCAG], the ligation selection enrichment was 0.722 ± 0.0083.
To GAGACCGCAACTGAAAAGTTGTGGTTACGATAGTGAGTCGCTGCCTGCAAAGACACAACT [TTACG] belongs 0.5128 ± 0.0029; to GAGACCGCAACTGAAAAGTTGTGGTTACCATAGTGAGTCGCTGCCTGCAAAGACACAACT [TTACC], 0.142 ± 0.02.
To GAGACCGCAACTGAAAAGTTGTGGTTACTATAGTGAGTCGCTGCCTGCAAAGACACAACT [TTACT] belongs 0.603 ± 0.42; to GAGACCGCAACTGAAAAGTTGTGGTTACAATAGTGAGTCGCTGCCTGCAAAGACACAACT [TTACA], 0.193 ± 0.00088; to GAGACCGCAACTGAAAAGTTGTGGTTAACATAGTGAGTCGCTGCCTGCAAAGACACAACT [TTAAC], 0.52 ± 0.0073.
Under GAGACCGCAACTGAAAAGTTGTGGTTAAGATAGTGAGTCGCTGCCTGCAAAGACACAACT [TTAAG] stands 0.69 ± 0.15.
Consider GAGACCGCAACTGAAAAGTTGTGGTTAATATAGTGAGTCGCTGCCTGCAAAGACACAACT [TTAAT], for which the ligation selection enrichment was 7.9 ± 1.6.
To GAGACCGCAACTGAAAAGTTGTGGTTCCAATAGTGAGTCGCTGCCTGCAAAGACACAACT [TTCCA] belongs 0.142 ± 0.0024.
GAGACCGCAACTGAAAAGTTGTGGTTCCGATAGTGAGTCGCTGCCTGCAAAGACACAACT [TTCCG]: the ligation selection enrichment was 0.813 ± 0.068.
To GAGACCGCAACTGAAAAGTTGTGGTTCCCATAGTGAGTCGCTGCCTGCAAAGACACAACT [TTCCC] belongs 0.175 ± 0.022.
